Literature values as cited in publication PMC5576036.

How the values were obtained:
[1] = target: CD122 (IL-2Rβ) (Homo sapiens) (UniProt P14784)
[2] = target: intermediate-affinity IL-2R (CD122/CD132) (Homo sapiens) (UniProt P14784)
[3] = target: CD25 (IL-2Rα) (Homo sapiens) (UniProt P01589)
Sequence of UniProt P01589 (P01589 22-240): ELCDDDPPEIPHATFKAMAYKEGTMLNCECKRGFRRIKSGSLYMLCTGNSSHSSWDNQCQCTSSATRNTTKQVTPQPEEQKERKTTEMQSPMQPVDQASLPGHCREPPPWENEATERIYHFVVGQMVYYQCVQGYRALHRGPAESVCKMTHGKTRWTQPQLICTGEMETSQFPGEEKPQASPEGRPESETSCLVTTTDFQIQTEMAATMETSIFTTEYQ

Kd [1]: 100 nM
Kd [2]: 1 nM
Kd [3]: 10 nM
Substance: IL-2 (from UniProt P60568)
